Blank lines part the entries; values can stand above or below the molecule they belong to.
Columns and labels:
[1] = molecular target: ACP-TM with the C-terminal YFP fragment at its C terminus (rabbit | not stated); assay: split reporter
[2] = molecular target: N-formyl peptide receptor (FPR), nonactivating mutant D71A (UniProt P21462); assay: TIRF imaging, time course of surface-bound fluorescence
[3] = molecular target: N-formyl peptide receptor (FPR), nonactivating mutant D71A (UniProt P21462); assay: single-molecule TIRF imaging, 2D-3D Scatchard plot
[4] = molecular target: the molecule itself; assay: single-molecule TIRF imaging, duration of colocalization events
[5] = molecular target: the molecule itself; assay: single-molecule TIRF imaging, spot-intensity histograms against expression level

corrected lifetime of BiFC dimers [1]: 163 ms
Molecule: ACP-TM with the N-terminal YFP fragment at its C terminus (from UniProt P42212 1-155)

kon [2]: 7.6e+06 M⁻¹ s⁻¹
Kd [3]: 2.2 nM
Molecule: N-formyl-Nle-Leu-Phe-Nle-Tyr-Lys conjugated with Alexa Fluor 594 (peptide)

B1: N-formyl peptide receptor (FPR), nonactivating mutant D71A (receptor, UniProt P21462 1-350, looked up)
chain: METNSSLPTNISGGTPAVSAGYLFLDIITYLVFAVTFVLGVLGNGLVIWVAGFRMTHTVTTISYLNLAVAAFCFTSTLPFFMVRKAMGGHWPFGWFLCKFVFTIVDINLFGSVFLIALIALDRCVCVLHPVWTQNHRTVSLAKKVIIGPWVMALLLTLPVIIRVTTVPGKTGTVACTFNFSPWTNDPKERINVAVAMLTVRGIIRFIIGFSAPMSIVAVSYGLIATKIHKQGLIKSSRPLRVLSFVAAAFFLCWSPYQVVALIATVRIRELLQGMYKEIGIAVDVTSALAFFNSCLNPMLYVFMGQDFRERLIHALPASLERALTEDSTQTSDTATNSTLPSAEVELQAK
koff [4]: 11 s⁻¹
stoichiometry N [5]: 2
